# According to US6107069A, “Recombinant kynurenine-3-hydroxylase enzyme and process for its preparation” (priority 1996, dated 2000):
# Substrate: Nc1ccccc1C(=O)C[C@H](N)C(=O)O
# Assay: cells, lysate or membranes named
# Conditions: other: L-kynurenine 1 to 4,000 μM, OD600 = 0.6, IPTG 1 mM, 2 h at 37° C.
protein,measurement,value
human recombinant kyn-3-OHase (Homo sapiens) (protein) MDSSVIQRKKVAVIGGGLVGSLQACFLAKRNFQIDVYEAREDTRVATFTRGRSINLALSHRGRQALKAVGLEDQIVSQGIPMRARMIHSLSGKKSAIPYGTKSQYILSVSRENLNKDLLTAAEKYPNVKMHFNHRLLKCNPEEGMITVLGSDKVPKDVTCDLIVGCDGAYSTVRSHLMKKPRFDYSQQYIPHGYMELTIPPKNGDYAMEPNYLHIWPRNTFMMIALPNMNKSFTCTLFMPFEEFEKLLTSNDVVDFFQKYFPDAIPLIGEKLLVQDFFLLPAQPMISVKCSSFHFKSHCVLLGDAAHAIVPFFGQGMNAGFEDCLVFDELMDKFSNDLSLCLPVFSRLRIPDDHAISDLSMYNYIEMRAHVNSSWFIFQKNMERFLHAIMPSTFIPLYTMVTFSRIRYHEAVQRWHWQKKVINKGLFFLGSLIAISSTYLLIHYMSPRSFLCLRRPWNWIAHFRNTTCFPAKAVDSLEQISNLISR,Km,57 ± 2 µM
same,Vmax,10.5±0.11 nmol/hour.mg of protein
